Our source for the Kd values is doi:10.1101/779439.

This test has as its target peptide of CD3 zeta chain containing SNID2 (residues 115-135). The experiment in a line: ITC.

In turn, “HIV-2 consensus Nef core domain (residues 90-256) (domain or fragment)” returned a Kd of 12 µM.

Substance “SIVmac239 Nef full core domain (residues 90-263), His-tagged, as used for ITC (domain or fragment)” registered a Kd of 5 µM.

By Kd is commonly meant the constant that tells how readily two partners part at equilibrium. Lower therefore signals higher affinity.
